We go through one substance from article PMC5581300.

Read-outs that look alike come from different tables or passages of the source.

Test [1] has as its target Plasma Membrane Calcium ATPase 4 (mouse (endogenous in sperm)) (UniProt Q6Q477). The test is described as follows: FRET or BRET. On the technique in general: In BRET a luciferase serves as donor, and the signal depends on an acceptor being close.
Test [2] shares this target. Nature of the test: FRET or BRET. The source holds these as a separate data set.

Sequence of UniProt Q6Q477 (Q6Q477 whole entry): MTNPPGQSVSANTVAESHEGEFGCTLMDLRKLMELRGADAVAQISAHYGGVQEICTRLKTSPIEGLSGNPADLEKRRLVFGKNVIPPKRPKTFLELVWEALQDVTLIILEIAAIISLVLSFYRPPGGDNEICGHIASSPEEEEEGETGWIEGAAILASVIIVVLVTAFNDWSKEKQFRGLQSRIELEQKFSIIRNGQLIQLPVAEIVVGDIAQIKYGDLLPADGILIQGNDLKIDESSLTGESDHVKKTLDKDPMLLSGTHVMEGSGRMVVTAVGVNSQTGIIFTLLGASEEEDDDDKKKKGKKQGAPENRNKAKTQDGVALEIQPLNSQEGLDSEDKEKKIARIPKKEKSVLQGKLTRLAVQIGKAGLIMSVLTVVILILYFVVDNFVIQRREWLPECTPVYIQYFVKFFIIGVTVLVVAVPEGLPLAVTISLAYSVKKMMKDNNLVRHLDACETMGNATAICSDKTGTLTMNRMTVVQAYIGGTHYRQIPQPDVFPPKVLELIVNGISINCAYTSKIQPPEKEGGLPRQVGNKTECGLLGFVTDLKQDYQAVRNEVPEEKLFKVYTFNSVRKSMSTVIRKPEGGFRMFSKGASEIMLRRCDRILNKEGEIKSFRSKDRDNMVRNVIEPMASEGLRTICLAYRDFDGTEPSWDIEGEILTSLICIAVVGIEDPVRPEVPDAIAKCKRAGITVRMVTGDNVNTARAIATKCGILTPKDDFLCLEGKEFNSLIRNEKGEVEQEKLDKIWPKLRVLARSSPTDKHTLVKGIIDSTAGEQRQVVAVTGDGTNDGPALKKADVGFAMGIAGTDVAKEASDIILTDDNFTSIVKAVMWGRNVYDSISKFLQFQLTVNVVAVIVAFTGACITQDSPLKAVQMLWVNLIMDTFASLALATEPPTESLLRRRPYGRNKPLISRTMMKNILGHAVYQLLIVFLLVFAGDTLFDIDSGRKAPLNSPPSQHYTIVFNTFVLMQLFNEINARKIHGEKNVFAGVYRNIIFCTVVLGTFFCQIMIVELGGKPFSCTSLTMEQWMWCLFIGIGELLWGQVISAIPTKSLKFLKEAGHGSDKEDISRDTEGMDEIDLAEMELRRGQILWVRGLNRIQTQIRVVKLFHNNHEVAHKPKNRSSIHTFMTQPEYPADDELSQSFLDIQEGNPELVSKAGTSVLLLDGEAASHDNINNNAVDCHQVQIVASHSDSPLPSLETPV

With “neuronal nitric oxide synthase (from UniProt Q9Z0J4 1-1429) (enzyme)”, the FRET efficiency turned out to be 6% in test [1] and 24% in test [2].
